Laboratory results published in article PMC7990337, “Architecture and mechanism of metazoan retromer:SNX3 tubular coat assembly” (Science Advances, 2021).

Target: zebrafish VPS26 (zebrafish, UniProt Q6TNP8 1-327)
Test: cryo-EM structure; cryo-electron tomography with subtomogram averaging of coats reconstituted on PI(3)P- and DGS-Ni-NTA-containing liposomes: 2.5 uM core trimer, 3.5x molar excess of adaptor (SNX3 or Grd19) and the corresponding His-tagged cargo peptide (Wls or Kex2), liposomes 0.16 mg/ml, 4 hours at 22°C in buffer A (20 mM Hepes-KOH pH 7.5, 200 mM NaCl, 1 mM TCEP)
Details: both partners purified

binding result: binds
B1: His6Wls (peptide, UniProt Q6DID7 493-541, looked up)
chain: APSHKNYGEDQSNGDLGVHSGEELQLTTTITHVDGPTEIYKLTRKEAQE
notes: Wntless (Wls), residues 493 to 541 (C-terminal domain), UniProt Q6DID7; Cloned in pRSFDuet-1; attached to the liposome membrane (liposomes contain DGS-Ni-NTA); also called Wntless cargo peptide; Wls cargo tail peptide; source: E. coli BL21(DE3), purified (Ni-NTA, Superdex Peptide 10/300)
